Results: patent US20110117017A1, “PEPTIDES WITH PROPERTIES OF AN […] FOR THE ALPHA 1A […] RECEPTOR AND USES THEREOF” (priority 2006, published 2011)

Molecular target: T1, alpha1b adrenergic receptor (expressed in Pichia pastoris, membranes) (Homo sapiens (Human)), P35368
T1 chain: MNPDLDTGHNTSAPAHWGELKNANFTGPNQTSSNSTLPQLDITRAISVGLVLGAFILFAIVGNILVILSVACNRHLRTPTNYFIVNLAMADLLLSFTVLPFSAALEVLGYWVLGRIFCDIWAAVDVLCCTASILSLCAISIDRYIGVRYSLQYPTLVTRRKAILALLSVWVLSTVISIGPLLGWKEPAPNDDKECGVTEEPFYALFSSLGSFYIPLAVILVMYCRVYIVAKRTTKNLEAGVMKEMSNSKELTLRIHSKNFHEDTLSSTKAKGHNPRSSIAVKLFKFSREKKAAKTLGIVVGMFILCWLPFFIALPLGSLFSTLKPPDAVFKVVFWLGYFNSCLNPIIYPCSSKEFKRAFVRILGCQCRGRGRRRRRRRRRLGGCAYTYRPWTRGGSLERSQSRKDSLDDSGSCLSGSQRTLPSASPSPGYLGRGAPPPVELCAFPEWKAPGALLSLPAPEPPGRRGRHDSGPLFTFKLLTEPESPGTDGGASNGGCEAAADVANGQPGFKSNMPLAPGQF
Test: displacement of 3H-prazosin (1 nM) from yeast membranes, filtration

B1: AdTx1 peptide (peptide)
peptide: LTCVTSKSIFGITTEDCPDGQNLCFKRRHYVVPKIYDSTRGCAATCPIPENYDSIHCCKTDKCNE
modifications: not checked
With B1 the IC50 was 2300 nM.
